Measurements taken from PMC8752127 (Structure(London, England:1993), 2022).

Target: CEP164^1−109 (N-terminal domain of human CEP164), untagged (human, UniProt Q9UPV0)
Experiment: crystal structure; nanobody and CEP164 1-109 (or the TTBK2 1074-1087-CEP164 1-109 fusion protein) mixed equimolar; vapour diffusion at 19°C
Conditions: both partners purified

- binding result: binds
B1: camelid nanobody 36Z (VHH)
VHH: QVQLQESGGGLVQAGGSLNLSCVASGSSHFNSMGWYRQAPGKQRDLVADISNDGVTNYADSVKDRFTISTNNAKNAVYLQMNNLKPEDTAVYYCNAVAVAGRAFSYWGQGTQVTVSS
